According to US20120107330A1 (published 2012):

Columns and labels:
[1] = biological target: T1, human TNFR1 on MRC-5 cells (human, UniProt P19438 30-455); experiment: cell-based or functional assay
T1 sequence (looked up): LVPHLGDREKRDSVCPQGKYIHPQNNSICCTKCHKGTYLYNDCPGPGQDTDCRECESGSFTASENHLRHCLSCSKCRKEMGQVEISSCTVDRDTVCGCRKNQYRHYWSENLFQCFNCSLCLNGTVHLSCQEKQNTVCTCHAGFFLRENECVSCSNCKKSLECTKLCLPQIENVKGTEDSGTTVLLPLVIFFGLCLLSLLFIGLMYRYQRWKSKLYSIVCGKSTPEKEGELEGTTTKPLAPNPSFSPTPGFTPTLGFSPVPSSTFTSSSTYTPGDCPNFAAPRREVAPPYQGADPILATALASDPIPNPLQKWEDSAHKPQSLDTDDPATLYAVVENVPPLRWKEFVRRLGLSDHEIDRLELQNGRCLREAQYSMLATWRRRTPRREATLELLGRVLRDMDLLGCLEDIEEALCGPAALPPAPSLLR

[2] = biological target: T2, human TNFR1 (recombinant, R&D Systems cat no. 636-R1/CF, biotinylated) (human, UniProt P19438 30-211, limits assumed, biotinylated with EZ-Link NHS-LC-LC-biotin); experiment: BIAcore, human TNFR1
T2 construct: it is not tied to the BIAcore reagent; also called p55; hTNFR1
T2 sequence (looked up): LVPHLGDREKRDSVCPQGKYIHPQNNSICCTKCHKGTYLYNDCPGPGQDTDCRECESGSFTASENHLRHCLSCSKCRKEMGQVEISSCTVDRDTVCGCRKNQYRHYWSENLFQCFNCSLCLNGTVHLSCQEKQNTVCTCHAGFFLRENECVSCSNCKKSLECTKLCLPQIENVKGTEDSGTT

[3] = biological target: T1, human TNFR1 on MRC-5 cells; experiment: cell-based or functional assay; remark: listed apart in the source
[4] = biological target: T2, human TNFR1 (recombinant, R&D Systems …); experiment: BIAcore T100, biotinylated human TNFR1 on chip
Procedure: Furthermore, the affinity and potency of the purified fusion molecules were determined using a BIAcore T100 and the MRC5 cell assay, respectively. The BIAcore T100 is a highly sensitive BIAcore version ideally suited for determination of high affinity binders (Papalia et al., Anal Biochem. 359, p 112 (2006)). Biotinylated, human TNFR1 was coated on the chip and each of the twelve AlbudAb fusions were passed over this surface at four different concentrations (2, 10, 50 and 250 nM). […] This improvement is observed regardless of the AlbudAb used for pairing and largest for the pairings with DOM7h-14-18. A second experiment used to establish if the different pairings affected the functional activity of the anti-TNFR1 dAb was the MRC5 cell assay (Table 8). A more marked difference between the pairings is observed in the MRC5 assay, in which the best potencies are observed in pairings with DOM7h-11-3 and DOM7h-11-12 while pairings with DOM7h-14-10 (DMS0117) lead to significant decreases in potency.

| Binder | MRC5 (ND50 in nM) [1] [nM] | Kd [2] [nM] | MRC-5 ND50 (TNFα-mediated IL-8 release) [3] [nM] | Kd [4] [nM] | koff [4] [s⁻¹] | kon [4] [M⁻¹ s⁻¹] | fold higher affinity than the other pairings [4] [fold] |
| --- | --- | --- | --- | --- | --- | --- | --- |
| DMS0117 (bispecific antibody) EVQLLESGGGLVQPGGSLRLSCAASGFTFVKYSMGWVRQAPGKGLEWVSQISNTADRTYYAHSVKGRFTISRDNSKNTLYLQMNSLRAEDTAVYYCAIYTGRWVPFEYWGQGTLVTVSSASTSGPSDIQMTQSPSSLSASVGDRVTITCRASQWIGSQLSWYQQKPGKAPKLLIMWRSSLQSGVPSRFSGSGSGTDFTLTISSLQPEDFATYYCAQGLRHPKTFGQGTKVEIKR | 25.9 |  |  |  |  |  |  |
| DMS0114 (bispecific antibody) EVQLLESGGGLVQPGGSLRLSCAASGFTFVKYSMGWVRQAPGKGLEWVSQISNTADRTYYAHSVKGRFTISRDNSKNTLYLQMNSLRAEDTAVYYCAIYTGRWVPFEYWGQGTLVTVSSASTDIQMTQSPSSLSASVGDRVTITCRASQWIGSQLSWYQQKPGKAPKLLIMWRSSLQSGVPSRFSGSGSGTDFTLTISSLQPEDFATYYCAQGLMKPMTFGQGTKVEIKR | 3.7 |  |  |  |  |  |  |
| DMS0123 (bispecific antibody) EVQLLESGGGLVQPGGSLRLSCAASGFTFVKYSMGWVRQAPGKGLEWVSQISNTADRTYYAHSVKGRFTISRDNSKNTLYLQMNSLRAEDTAVYYCAIYTGRWVPFEYWGQGTLVTVSSASGGGGSGGGGSGGGGSDIQMTQSPSSLSASVGDRVTITCRASQWIGSQLSWYQQKPGKAPKLLIMWRSSLQSGVPSRFSGSGSGTDFTLTISSLQPEDFATYYCAQGLRHPKTFGQGTKVEIKR | 5 |  |  |  |  |  |  |
| DOM1h-574-15 (other, VH dAb) VH: EVQLLESGGGLVQPGGSLRLSCAASGFTFVKYSMGWVRQAPGKGLEWVSQISNTGDHTYYADSVKGRFTISRDNSKNTLYLQMNSLRAEDTAVYYCAIYTGRWEPFDYWGQGTLVTVSS |  | 20 | 300 |  |  |  |  |
| DOM1h-574-19 (other) VH: EVQLLESGGGLVQPGGSLRLSCAASGFTFGKYSMGWVRQAPGKDLEWVSQISNTGDHTYYADSVKGRFTISRDNSKNTLYLQMNSLRAEDTAVYYCAIYTGRWEPFDYWGQGTLVTVSS |  |  | 140 |  |  |  |  |
| DOM1h-574 (other, VH dAb; also called parental dAb) VH: EVQLLESGGGLVQPGGSLRLSCAASGFTFVKYSMGWVRQAPGKGLEWVSQISNTGGHTYYADSVKGRFTISRDNSKNTLYLQMNSLRAEDTAVYYCAKYTGHWEPFDYWGQGTLVTVSS |  | 210 | 2200 |  |  |  |  |
| DOM1h-574-11 (other, VH dAb) VH: EVQLLESGGGLVQPGGSLRLSCAASGFTFVKYSMGWVRQAPGKGLEWVSQISNTGGHTYYADSVKGRFTISRDNSKNTLYLQMNSLRAEDTAVYYCAKYTGRWEPFDHWGQGTLVTVSS |  | 200 | 800 |  |  |  |  |
| DOM1h-574-8 (other, VH dAb) VH: EVQLLESGGGLVQPGGSLRLSCAASGFTFVKYSMGWVRQAPGKGPEWVSQISNTGGHTYYADSVKGRFTISRDNSKNTLYLQMNSLRAEDTAVYYCAIYTGRWEPFDYWGQGTLVTVSS |  | 5.7 | 10 |  |  |  |  |
| DOM1h-574-10 (other, VH dAb) VH: EVQLLESGGGLVQPGGSLRLSCAASGFTFGKYSMGWVRQAPGKDLEWVSQISNTGGHTYYADSVKGRFTISRDNSKNTLYLQMNSLRAEDTAVYYCAIYTGRWEPFDYWGQGTLVTVSS |  | 19 | 100 |  |  |  |  |
| DOM1h-574-7 (other, VH dAb) VH: EVQLLESGGGLVQPGGSLRLSCAASGFTFVKYSMGWVRQAPGKGLEWVSQISNTGGHTYYADSVKGRFTISRDNSKNTLYLQMNSLRAEDTAVYYCAIYTGRWEPFDYWGQGTLVTVSS |  | 48 | 580 |  |  |  |  |
| DMS0111 (bispecific antibody, anti-TNFR1 dAb / AlbudAb in-line fusion) EVQLLESGGGLVQPGGSLRLSCAASGFTFVKYSMGWVRQAPGKGLEWVSQISNTADRTYYAHSVKGRFTISRDNSKNTLYLQMNSLRAEDTAVYYCAIYTGRWVPFEYWGQGTLVTVSSASTDIQMTQSPSSLSASVGDRVTITCRASRPIGTTLSWYQQKPGKAPKLLILWNSRLQSGVPSRFSGSGSGTDFTLTISSLQPEDFATYYCAQAGTHPTTFGQGTKVEIKR | 1.6 |  |  | 0.17 | 6.2e-05 | 370000 |  |
| DMS0112 (bispecific antibody, anti-TNFR1 dAb / AlbudAb in-line fusion) EVQLLESGGGLVQPGGSLRLSCAASGFTFVKYSMGWVRQAPGKGLEWVSQISNTADRTYYAHSVKGRFTISRDNSKNTLYLQMNSLRAEDTAVYYCAIYTGRWVPFEYWGQGTLVTVSSASTDIQMTQSPSSLSASVGDRVTITCRASRPIGTMLSWYQQKPGKAPKLLILFGSRLQSGVPSRFSGSGSGTDFTLTISSLQPEDFATYYCAQAGTHPTTFGQGTKVEIKR | 1.3 |  |  | 0.14 | 5.5e-05 | 400000 |  |
| DMS0115 (bispecific antibody, anti-TNFR1 dAb / AlbudAb in-line fusion) EVQLLESGGGLVQPGGSLRLSCAASGFTFVKYSMGWVRQAPGKGLEWVSQISNTADRTYYAHSVKGRFTISRDNSKNTLYLQMNSLRAEDTAVYYCAIYTGRWVPFEYWGQGTLVTVSSASTSGPSDIQMTQSPSSLSASVGDRVTITCRASRPIGTTLSWYQQKPGKAPKLLILWNSRLQSGVPSRFSGSGSGTDFTLTISSLQPEDFATYYCAQAGTHPTTFGQGTKVEIKR | 1.7 |  |  | 0.16 | 5.8e-05 | 360000 |  |
| DMS0116 (bispecific antibody, anti-TNFR1 dAb / AlbudAb in-line fusion) EVQLLESGGGLVQPGGSLRLSCAASGFTFVKYSMGWVRQAPGKGLEWVSQISNTADRTYYAHSVKGRFTISRDNSKNTLYLQMNSLRAEDTAVYYCAIYTGRWVPFEYWGQGTLVTVSSASTSGPSDIQMTQSPSSLSASVGDRVTITCRASRPIGTMLSWYQQKPGKAPKLLILFGSRLQSGVPSRFSGSGSGTDFTLTISSLQPEDFATYYCAQAGTHPTTFGQGTKVEIKR | 1.7 |  |  | 0.14 | 5.4e-05 | 370000 |  |
| DMS0118 (bispecific antibody, anti-TNFR1 dAb / AlbudAb in-line fusion) EVQLLESGGGLVQPGGSLRLSCAASGFTFVKYSMGWVRQAPGKGLEWVSQISNTADRTYYAHSVKGRFTISRDNSKNTLYLQMNSLRAEDTAVYYCAIYTGRWVPFEYWGQGTLVTVSSASTSGPSDIQMTQSPSSLSASVGDRVTITCRASQWIGSQLSWYQQKPGKAPKLLIMWRSSLQSGVPSRFSGSGSGTDFTLTISSLQPEDFATYYCAQGLMKPMTFGQGTKVEIKR | 1.4 |  |  | 0.076 | 4.9e-05 | 640000 | 3 |
| DMS0121 (bispecific antibody, anti-TNFR1 dAb / AlbudAb in-line fusion) EVQLLESGGGLVQPGGSLRLSCAASGFTFVKYSMGWVRQAPGKGLEWVSQISNTADRTYYAHSVKGRFTISRDNSKNTLYLQMNSLRAEDTAVYYCAIYTGRWVPFEYWGQGTLVTVSSASGGGGSGGGGSGGGGSDIQMTQSPSSLSASVGDRVTITCRASRPIGTTLSWYQQKPGKAPKLLILWNSRLQSGVPSRFSGSGSGTDFTLTISSLQPEDFATYYCAQAGTHPTTFGQGTKVEIKR | 1.8 |  |  | 0.2 | 6e-05 | 300000 |  |
| DMS0122 (bispecific antibody) EVQLLESGGGLVQPGGSLRLSCAASGFTFVKYSMGWVRQAPGKGLEWVSQISNTADRTYYAHSVKGRFTISRDNSKNTLYLQMNSLRAEDTAVYYCAIYTGRWVPFEYWGQGTLVTVSSASGGGGSGGGGSGGGGSDIQMTQSPSSLSASVGDRVTITCRASRPIGTMLSWYQQKPGKAPKLLILFGSRLQSGVPSRFSGSGSGTDFTLTISSLQPEDFATYYCAQAGTHPTTFGQGTKVEIKR | 1.5 |  |  |  |  |  |  |
| DMS0124 (bispecific antibody, anti-TNFR1 dAb / AlbudAb in-line fusion) EVQLLESGGGLVQPGGSLRLSCAASGFTFVKYSMGWVRQAPGKGLEWVSQISNTADRTYYAHSVKGRFTISRDNSKNTLYLQMNSLRAEDTAVYYCAIYTGRWVPFEYWGQGTLVTVSSASGGGGSGGGGSGGGGSDIQMTQSPSSLSASVGDRVTITCRASQWIGSQLSWYQQKPGKAPKLLIMWRSSLQSGVPSRFSGSGSGTDFTLTISSLQPEDFATYYCAQGLMKPMTFGQGTKVEIKR | 1.9 |  |  | 0.077 | 3.5e-05 | 450000 | 3 |
